In the supplement of paper PMC10724198:
± gives the standard deviation of the averaged measurements.

What was measured:
Saccharomyces cerevisiae [1] = experiment: protein stability index of tFT-peptide fusion (C-terminal peptide) (PSI (0-1 scale)); higher = more stable (slower turnover)
Protocol: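 MPS profiling in S. cerevisiae of the tFT-X12 degron library: putative degron peptides plus stable controls, 12 aa, fused to the C-terminus of a sfGFP-mCherry timer. Cells are FACS-sorted into 8 mCherry/sfGFP bins and deep-sequenced. PSI runs from 0 (unstable) to 1 (stable). Backgrounds are wild type, das1Δ and doa10Δ at 30 °C, and wild type, das1Δ, cdc34-1 and cdc53-1 at 37 °C; 2-3 technical replicates each.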

Saccharomyces cerevisiae [2] = experiment: as above; conditions: genetic background: wild type; temperature: 30 C
[3] = genetic background: cdc34-1, temperature: 37 C
[4] = genetic background: cdc53-1, temperature: 37 C
[5] = genetic background: das1 deletion, temperature: 30 C
[6] = genetic background: das1 deletion, temperature: 37 C
[7] = genetic background: doa10 deletion, temperature: 30 C
[8] = genetic background: wild type, temperature: 30 C
[9] = genetic background: wild type, temperature: 37 C
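Further: PSI is a weighted mean of sequencing reads over stability bins, variants kept only with over 10 reads, mCherry proximal and sfGFP distal, peptide attached via GGGS linker.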

Row | Sequence | protein stability index (Saccharomyces cerevisiae [1]; [3]) | protein stability index (Saccharomyces cerevisiae [1]; [4]) | protein stability index (Saccharomyces cerevisiae [1]; [5]) | protein stability index (Saccharomyces cerevisiae [1]; [6]) | protein stability index (Saccharomyces cerevisiae [1]; [7]) | protein stability index (Saccharomyces cerevisiae [1]; [8]) | protein stability index (Saccharomyces cerevisiae [1]; [9]) | protein stability index (Saccharomyces cerevisiae [2])
1 | VFFVTSCWVFRG | 0.416 ± 0.018 | 0.574 ± 0.019 | 0.432 ± 0.022 | 0.64 ± 0.022 | 0.0921 ± 0.02 | 0.109 ± 0.028 | 0.208 ± 0.029 | 0.1794 ± 0.0015
2 | VFGFSLLTLLVL | 0.441 ± 0.0078 | 0.511 ± 0.025 | 0.386 ± 0.0081 | 0.5062 ± 0.0021 | 0.324 ± 0.011 | 0.347 ± 0.024 | 0.467 ± 0.019 | 0.439 ± 0.022
3 | VFRRWGLIGVIV | 0.306 ± 0.026 | 0.326 ± 0.022 | 0.278 ± 0.041 | 0.434 ± 0.018 | 0.181 ± 0.0038 | 0.226 ± 0.032 | 0.353 ± 0.0088 | 0.378 ± 0.0068
4 | VFSGGGFFLKVV | 0.67453 ± 9.2e-05 | 0.765 ± 0.01 | 0.651 ± 0.024 | 0.755 ± 0.022 | 0.19 ± 0.0039 | 0.215 ± 0.023 | 0.504 ± 0.02 | 0.3766 ± 0.0029
5 | VFSVSVLFLFFH | 0.286 ± 0.0084 | 0.392 ± 0.0056 | 0.282 ± 0.034 | 0.456 ± 0.015 | 0.251 ± 0.011 | 0.242 ± 0.038 | 0.381 ± 0.019 | 0.377 ± 0.032
6 | VFVLFCAFVRAL | 0.212 ± 0.025 | 0.413 ± 0.032 | 0.286 ± 0.036 | 0.482 ± 0.014 | 0.0841 ± 0.013 | 0.0907 ± 0.0079 | 0.096736 ± 8.4e-05 | 0.2111 ± 0.00022
7 | VFVLFLRAVACR | 0.0227 ± 0.0013 | 0.0336 ± 0.0004 | 0.0288 ± 0.0046 | 0.0423 ± 0.0022 | 0.0174 ± 0.0024 | 0.0193 ± 0.0039 | 0.0342 ± 0.015 | 0.0236 ± 0.013
8 | VFVMVLCALFYF | 0.248 ± 0.034 | 0.282 ± 0.04 | 0.242 ± 0.032 | 0.38 ± 0.032 | 0.2436 ± 0.0014 | 0.236 ± 0.017 | 0.319 ± 0.015 | 0.279 ± 0.022
9 | VFYRPFFVLFFV | 0.246 ± 0.026 | 0.228 ± 0.004 | 0.265 ± 0.022 | 0.413 ± 0.011 | 0.113 ± 0.016 | 0.0946 ± 0.022 | 0.152 ± 0.0038 | 0.114 ± 0.0065
10 | VGDVVWFGVGAG | 0.733 ± 0.033 | 0.7757 ± 0.0042 | 0.662 ± 0.0049 | 0.782 ± 0.0084 | 0.662 ± 0.022 | 0.6566 ± 0.005 | 0.7438 ± 0.0022 | 0.761 ± 0.023
11 | VGEQEVVGIGGV | 0.674 ± 0.039 | 0.7077 ± 0.0065 | 0.653 ± 0.021 | 0.735 ± 0.046 | 0.642 ± 0.026 | 0.646 ± 0.023 | 0.719 ± 0.03 | 0.695 ± 0.018
12 | VGGGCVVVVRWG | 0.589 ± 0.044 | 0.615 ± 0.02 | 0.485 ± 0.019 | 0.619 ± 0.009 | 0.477 ± 0.022 | 0.475 ± 0.012 | 0.594 ± 0.0083 | 0.52 ± 0.035
13 | VGLWCWSFVLVW | 0.0589 ± 0.018 | 0.0934 ± 0.034 | 0.11 ± 0.03 | 0.189 ± 0.0028 | 0.0842 ± 0.021 | 0.103 ± 0.023 | 0.153 ± 0.0027 | 0.156 ± 0.038
14 | VGRVIVIVVAGV | 0.329 ± 0.012 | 0.395 ± 0.016 | 0.274 ± 0.036 | 0.4541 ± 0.0045 | 0.236 ± 0.0065 | 0.267 ± 0.028 | 0.423 ± 0.022 | 0.375 ± 0.033
15 | VGVCGSSGRVGG | 0.688 ± 0.03 | 0.7314 ± 0.0042 | 0.641 ± 0.014 | 0.718 ± 0.0032 | 0.643 ± 0.021 | 0.645 ± 0.012 | 0.717 ± 0.024 | 0.7 ± 0.025
16 | VGVIGWGGLGVG | 0.486 ± 0.048 | 0.5527 ± 0.0051 | 0.487 ± 0.019 | 0.549 ± 0.015 | 0.4929 ± 0.0046 | 0.485 ± 0.014 | 0.542 ± 0.023 | 0.492 ± 0.00099
17 | VHGWRPLLFHTR | 0.648 ± 0.032 | 0.668 ± 0.0099 | 0.647 ± 0.0073 | 0.702 ± 0.031 | 0.674 ± 0.024 | 0.622 ± 0.024 | 0.6989 ± 0.0063 | 0.519 ± 0.13
18 | VHTAIFTSWRRL | 0.696 ± 0.048 | 0.738 ± 0.018 | 0.631 ± 0.04 | 0.7721 ± 0.001 | 0.481 ± 0.018 | 0.494 ± 0.017 | 0.685 ± 0.02 | 0.491 ± 0.028
19 | VIGLLSYFLVYL | 0.498 ± 0.061 | 0.513 ± 0.0062 | 0.407 ± 0.037 | 0.6091 ± 0.0039 | 0.438 ± 0.032 | 0.406 ± 0.019 | 0.581 ± 0.03 | 0.491 ± 0.02
